Laboratory results as given in the nanobody polyreactivity screen of Harvey et al. (2022).

Test: yeast display, Sf9 membrane polyspecificity reagent, FACS + sequencing; frameworks hold sequencing errors
How it was run: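 Galactose-induced (36–48 hours) yeast carrying a synthetic nanobody display library were exposed to 10% biotinylated, detergent-solubilized Sf9 membrane reagent at 4 °C for 1 hour. FACS followed streptavidin microbead enrichment, using low and high (top ~1%) gates for expression (anti-HA) and reagent binding (streptavidin). Colony PCR, MiSeq 2 × 250 sequencing and CDR-length filtering followed. Labels for polyreactivity reflect the gate of origin.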

Sequence | polyreactivity (PSR sort gate)
QVQLVESGGGLVQAGGSLRLSCAASGRTFRINAMGWYRHAPGKERELVAAITRGDTNYADSVKGRFTISRDNAKNTVYLQMNSLKPEDTAVYYCNAELSFRYPVFRELDYWGQGTQVTVSS | low polyreactivity
QVQLVESGGGLVQAGGSLRLSCAASGSRNAMGWYRQAPGKESEFVAAITWNGGSTYYADSVKGRFTISRDNAKNTVYLQMNSLKPEDTAVYYCNKREVFIYGTTYDYWRQGTQVTVSS | low polyreactivity
QVQLVESGGGLVQAGGSLRLSCAASGSIFGRNAMGWYRQAPGKERELVAAINSGGSTNYADSVKGRFTISRDNAKNTVYLQMNSLKPEDTAVYYCAARTYSSGRYYGYVAFYYWGQGTQVTVSS | high polyreactivity
QFHLLESGGRLDQAGGSLRLSCAASGIIFRGNAMGWYIQAPGKERELVAAISSGGSTYYADTVKGSFTISRDNAKNTVYLKMNCLKPEDTAVYYCNARWYFWGTLYGSWGQGTQVTVSS | high polyreactivity
QVQLVESGGGLVQAGGSLRLSCAASGFTFYGNAMGWYRQAPGKERELVAAISSSGGITYYADSVKGRFTISRDNAKNTVYLQMNSLKPEDTAVYYCAAVQGTPDYEYDSWGQGTQVTVSS | low polyreactivity
QVQLVESGGGLVQAGGSLRLSCAASGSIFSPNDMGWYRPAHGKERELVAAITSAGSTFYADSVKGRFTISRDNAKNTVYIQMNSLKPEDTAVDYCSATYISVTDYAYFPLWYGYWGQGTQVTVSS | low polyreactivity
QVQLVESGGGLVQAGGSLRLSCAASGFTFYFYAMAWYRQAPGKERELVAAISSGGSTKYADSVKVRFTISRDNAKNTVYLQMKSLKPEDTAVYYCNRYYPGSGPLGYWGQGTQVTVSS | low polyreactivity
QVQLVESGGGLVQAGGSLRLSCAASGSTFTGYAMGWSRQAPGKEREIVATITKRGGRTYYADSVKGRFTISRDNAKNTVYLQMNSLKPEDTAVYYCARDQGKLVVPYAYWGQGTQVTVSS | high polyreactivity
QVQLVESGGGLVQAGGSLRLSCAASGITFKPYAMGWYRQAPGKERELVATITFRGGSTYYADSVKGRFTISRDNAKNTVYLQMNSLNPEDTAVYYCAAVTRRYVLSTFYYWGQGTQVTVSS | high polyreactivity
QVQLVESGGGLVQAGGSLSLSCASSANIFGVYAKGWYRQPPGKERELVAAIRYSTVSTYYADSVKGRFTISRDNAKNTVYLQLHSLKPEDTAVFYCAAQRRLYLPGHYYYWGQGTQVTVSS | high polyreactivity
QVQLVESGGGLVQAGGSLRLSCAASGFTLVNNAMGWYRQAPGKERELVAAISKRAGRTYYADSVKGRFTISRDNAKNTVYLQMNSLKPEDTAVYYCNAGKRVEYDYWGQGTQVTVSS | high polyreactivity
QVQLVESGGGLVQAGGSLRLSCAASGSTLDVYAMGWYRQAPGKERELVAAITVRATSTYYADSVKGRFTISRDNAKNTVYLQMNSQKPEDTAVYYCDARYEFFYKAFDVDSWGQGTQVTVSS | low polyreactivity
QVQLVESAGGLVQAGGSLRLSCAASGRIFQFYAMGWYRQAPGKERELVATITRGGSTYYADSVKGRFTISRDNAKNTVYLQMNSLKPEDTAVYYCAAGFAGKYYWGQGTQVTVSS | high polyreactivity
QVQLVESGGGLVQAGGSLRLSCAASGYTLTINVMGWYRQAPGKERELVAAITSSGASTNYADSVKGRFTISRDNAKNTVYLQMNSLKPEDTAVYYCNVVNEHQSDFVVPFDYNHWGQGTQVTVSS | low polyreactivity
QVQLEESGGGLVQAGGSLRLSCAASGRIFGVYAMGWYRQAPGKERELVAAISWSASSTYYADSVKGRFTISRDNAKNTVYLQMNSLKPEDTAVYYCNAEVLGFYELDYWGQGTQVTVSS | high polyreactivity
QVQLVESGGGLVQAGGSLRLSCDASGGPFYLNAMGWYRPAPGTERELVAGITWGGGRTYYADSVKGLFTISRDNAKNTVYLQMNSLKPEDTAVYYCAAGAWRGPYSGYYYWGQGTQVTVSS | low polyreactivity
QVQVVESGGGLVQAGGSLRLRCAASGRIFAHYAMGWYRQAPGKEREMVAAISSSGTRTYYADSVKGRFTISRDNAKKTVYLQMNSLKPEDTAVYYCAKDSYHTVWGGYWGQGTQVTVSS | high polyreactivity
QVQLLESGGGLVQAGGSLRLSCAASGRIFVYYAMGLYRKAPGKERELVATITFGGGSTYYADSVKGRFTISRDNAKNNVYLQMNSLKQEDTAVYYCNAPGFAWYTTKYDYCGQGTQVTVSS | low polyreactivity
QVQLVESGGGLVQAGGSLRLSCAASGRTFKLYAMGWYRQAPGKERALVAAITESGGSTYYADSVKGRFTISRDNAKNTVYLQMNSLKPEDTAVYYCAAYASAGTRGGYDYWGQGTQVTVSS | low polyreactivity
QVQLVESGGGLVQAGGSLRLSCAASGFTCTYYAMGWYRQAPGKERELVAAITRGGITNYADSVKGRFTISRDNAKNTVYLQMNSLKPEDTAVYYCAADYWNFNWRYKLYRPYDYWGQGTQVTVSS | high polyreactivity
QVQLVESGGGLVQAGGSLRLSCAASGLIFKFYAMGWYRQAPGKERELVARISSCGGSTYYADSVKGRFTMSRDNAKNTVYLQMNSLKPEDTAVYYCAAGDYYGDRYARSSIFSYYYWGQGTQVTVSS | high polyreactivity
QVQLLESGGGLVQAGGSLRLRCASSGSISDWNAMGWYRQAPGKERELVAAISRGGNTNYADSVKGRFTISRDNAKNTVYLQMNSLKPEDTAVYYCAAGHGSLRYNYWGQGTQVSVSS | high polyreactivity

Sequence | polyreactivity (PSR sort gate)
QVQLVESRGGLVQAGGSVRLSFAASGRILKYNAMGWYRQAPGKERELVAAISYRGGSTYYADSVKGRFTISRDNAKNTVYLQMNSLKPEDTAVYYCAALTESTSYGYWGQGTQVTVSS | low polyreactivity
QVQLVESGGGLVQAGGSLRLICAASGSTFVRNAMGWYRQSPGKEREFVAAIRRSGGSTYYADSVKGRFTISRDNPKNTVYLQINSLKPEDTAVYDCAARNYYTYDYWGQGTQVTVSS | high polyreactivity
QVQIVESCGGLVQAGGSLRLSCAASGITFDVNTMGWYRQAPGKEREMVAAITRDVTTNYADSVKGPFTISRDNAKNTVYLQMNSLKPEDTAVYYCAADGYGQYSQVTDHPYKYNYWRQGTQVTVSS | low polyreactivity
QVQLVESGGGLVQAGGSLRLSCAASGRTFKPYAMGWYRQAPGKERELVAAISTGGSTNYADSVKGRFTISRDNAKNTVYLQMKSLKPEDTAVYYCAALYSYFWLIIDYGYWGQGTQVTVSS | low polyreactivity
QVQLVESGGGLVQAGGSLRLSCAASGRIFGYNAMGWYRQAPGKERELVAAITNGGSTNYADSVKGRFTISRDNAKNTVYLQMNSLKPEDTAVYYCAVKWYPPGHDYWGQGTQVTVSS | low polyreactivity
QVQLVESGGGLVQAGGSLRLSCAASGSIFDFYDMGWYRPAPGKERELVAAISSGGGSTYYADSVKGRFTISRDNAKNTVYLQMNSLKPEDTAVYYCAADLKGNYYLGIARYVLYYWGQGTQVTVSS | low polyreactivity
QVKLVESAGGLVQAGCSLRLSCAASGSIFLKNAKGWYRQSPGKERELVAGITTRGSTYYADSVKGRFTISRDNAKNTVYLQMNSLKPEDTAVYYCAKRDVGYQTRYFYWGQGTQVTVSS | high polyreactivity
QVQLVESGGGLVQAGGSLRLSCAASGSIFYYNAMGWYRQAPGKERELVATIRTSGGSTYYADSVKGRFTISRDNAKNTVYLQMNSLKPEDTAVYYCAARDLRKLYSRYPYYYWGQGTQVTVSS | high polyreactivity
QVQLVESRGGLVQAGGSLRLSCAASGFTFWFYAMGWYRQAPGKERELVAAISNAGGTNYADSVKGRFTISRDNAKYTVYLQMNSLKPEDTAVYYCAAAWPHWGDLGGTEWYLFYYWGQGTQVTVSS | low polyreactivity
QVQLVESGGGLVQAGGSLRLSCAASGSIFAANAMGWYRQAPGKERELVAAITRGGRTYYADSVKGRFTISRDNAKNTVYLQMNSLKPEDTAVYYCAAYVFSKREYYRYDYWGQGTQVTVSS | high polyreactivity
QVQLVESGGGLVQARGSLRLSCAASGSIFGSYAMGWYRQAPGKDSELVADISCGGSTNYADSVKGRFTISRDNAKNTVYLQMNSLKPDDTAVYYCNADDPAGYLYLWGSWLESDYWGQGTQVTVSS | low polyreactivity
QVQQQVSGGGLVQAGGSLRLSCAASGYIFQNVPMGWNRQAPGKERDLVAGIDNGTSTNYADSVNGRFTISRDNAKNTVYLQMNSLKPEVTAVYYCAAAGQADDTLGYWGQGTLVTVSS | low polyreactivity
QVQLVESGGGLVQAGGSLRLSCAASGLTFGPYAMGWYRQAPGKERELVAAITSGGRTYYADSVKGRFTISRDNAKNTVYLKMNSLKPEDTAVYYCAADPLSGYDYWGQGTQVTVSS | low polyreactivity
QVQLQESGGRLEQAGGSLRPSCAASGSISDGVPMRWNRQAPGEERELVATTVLGATTNYADSVKGRFTISRGNAKHTVYLQMNSLKPEETAVYYCAARLRYDKGFSYWGQGTQVTVSS | low polyreactivity
QVQLAESGGGLVQAGGSLRLSCAASGRTFSQYGMGWYRQAPGKERELVARIRRSGGSTYYADSVKGRFTISRDNAKNTVYLQMNSLKPEDTAVYYCNADGQPYTRYGYWGQGTRVTVSS | high polyreactivity
QVQLVESGGGLVQAGGSLRLSCAASGLIFGSYAMGWYRQAPGKEMELVAAISWSGGSTNYADSVKGRFTISRDNSKNTVDLQMNSLKPEDTAVYYCAARGYPLGIGRIKRNYWGQGTQVTVSS | high polyreactivity
QVQLVESGGGLVQAGGSLRLSCAASGSTFPYNAMGWYRQAPGKEWELVAAISQSGGSTYYADSVKGRFTISRDNAKNTVYLQMNSLKPEDTAVYYCATDQSLLAHYDYWGQGTQVTVSS | low polyreactivity
QVQLEESGGGLVQAGGSLRLSCAASGRTFIYYAMGWYRQATGKEREFVAAITKSGGTTYYADSVKGRFTISRHNAKNTVYLQMNSLKPEDTAVYYCAKTTRRGFALYDYWGQGTQVTVSS | high polyreactivity
QVQLVESGGGLVQAGGSLRLSCAASGRTLNNNAMGWYRQAPGKERELVAAISRSGGRTYYADSVKGRFTISRDNAKNTVYLQMNSLKPEDTAVYYCAAVNIRFGYADRFYYVYRGDEWGQGTQVTVSS | high polyreactivity
QVQLLESGGGLVQAGGSLRLSCAASGITFAKYAMGWYRQAPGKEREFVAAISTSGGSTYYADSVKGRFTISRDNAKNTVYLQMNSLKPEDTAVYYSNVETYIWYFLRYYNYWGQGTQVTVSS | high polyreactivity
QVQLVESAGGLVQAGGSLRLICAATGLNLYVYVMGWYRQAPGKERELVAAITWSVSRTYYADSVKGRFTISRDNAKNTVYLQMNSLKPEDTAVYYCAARIPSDGYYYWGQGTQVTVSS | high polyreactivity
